In article PMC9100253 (International Journal of Molecular Sciences, 2022):

How the values were obtained:
CTX-M-15 [1] = target: T1, CTX-M-15 (Escherichia coli, UniProt A0A5R8T042, S73A); assay: biochemical
T1 construct: gene bla

[2] = system: CC1(C)S[C@@H]2[C@H](NC(=O)[C@H](N)c3ccccc3)C(=O)N2[C@H]1C(=O)O; assay: purified protein; format: biochemical, Escherichia coli; conditions: PBS pH 7.4, 10 nM enzyme, acyl-enzyme structure, covalent
[3] = system: CO/N=C(\C(=O)N[C@@H]1C(=O)N2C(C(=O)O)=C(CS)CS[C@H]12)c1csc(N)n1; assay: purified protein; format: biochemical, Escherichia coli; conditions: PBS pH 7.4, 10 nM enzyme, acyl-enzyme structure, covalent
[4] = system: CO/N=C(\C(=O)N[C@@H]1C(=O)N2C(C(=O)O)=C(CSC(=O)c3ccco3)CS[C@H]12)c1csc(N)n1; assay: purified protein; format: biochemical, Escherichia coli; conditions: PBS pH 7.4, 10 nM enzyme
[5] = system: O=C(Cc1cccs1)N[C@@H]1C(=O)N2C(C(=O)O)=C(/C=C/c3ccc([N+](=O)[O-])cc3[N+](=O)[O-])CS[C@H]12; assay: purified protein; format: biochemical, Escherichia coli; conditions: PBS pH 7.4, 10 nM enzyme
CTX-M-15 [6] = target: T2, CTX-M-15 (Escherichia coli, UniProt A0A5R8T042); assay: inhibition of ceftiofur hydrolysis, absorbance; format: biochemical
T2 construct: gene bla; blaCTX-M-15 in pET200 TOPO, E. coli BL21(DE3); DEAE and hydroxyapatite purification; three molecules per asymmetric unit

How did the Kd (CTX-M-15 [1]) turn out when `O=C(Cc1cccs1)N[C@@H]1C(=O)N2C(C(=O)O)=C(/C=C/c3ccc([N+](=O)[O-])cc3[N+](=O)[O-])CS[C@H]12` [nitrocefin] was run?
The Kd was 71.3 µM.

`CC1(C)S[C@@H]2[C@H](NC(=O)[C@H](N)c3ccccc3)C(=O)N2[C@H]1C(=O)O` [ampicillin] was tested. Which Kd (CTX-M-15 [1]) did it give?
Its Kd is 28.8 µM.

`CO/N=C(\C(=O)N[C@@H]1C(=O)N2C(C(=O)O)=C(CSC(=O)c3ccco3)CS[C@H]12)c1csc(N)n1` [ceftiofur] was tested. Which Kd (CTX-M-15 [1]) did it give?
The Kd was 38.2 µM.

CTX-M-15 (Escherichia coli O25b:H4) was tested. Which Km [2] did it give?
The Km was 197.8 ± 13.0 µM.

What about the Vmax [2] of the same compound?
Its Vmax is 60.6 µmol/min.

And the kcat [2]?
The kcat was 102 ± 5.6 s⁻¹.

And the kcat/Km [2]?
The kcat/Km was 520000 ± 10000 M⁻¹ s⁻¹.

And the Km [3]?
Its Km is 141.2 ± 11.2 µM.

And the Vmax [3]?
The Vmax was 293 µmol/min.

What about the kcat [3] of the same compound?
Its kcat is 490 ± 16.2 s⁻¹.

What about the kcat/Km [3] of the same compound?
Its kcat/Km is 3.46e+06 ± 140000 M⁻¹ s⁻¹.

What about the Km [4] of the same compound?
Its Km is 330.0 ± 14.1 µM.

And the Vmax [4]?
The Vmax was 188 µmol/min.

And the kcat [4]?
The kcat was 314 ± 13 s⁻¹.

What about the kcat/Km [4] of the same compound?
The kcat/Km was 950000 ± 10000 M⁻¹ s⁻¹.

And the Km [5]?
Its Km is 1047.0 ± 75.8 µM.

And the Vmax [5]?
The Vmax was 203 µmol/min.

How did the Ki (CTX-M-15 [6]) turn out when `O=C(O)[C@H]1/C(=C/CO)O[C@@H]2CC(=O)N21` [clavulanic acid] was run?
The Ki was 0.022 ± 0.007 µM.

What about the Kd (CTX-M-15 [1]) of the same compound?
The Kd was 289 µM.

Which Kd (CTX-M-15 [1]) does the source give for `CO/N=C(\C(=O)N[C@@H]1C(=O)N2C(C(=O)O)=C(CS)CS[C@H]12)c1csc(N)n1` [desfuroylceftiofur] here?
Its Kd is 10.7 µM.
